Assay results as given in the PETadex activity labels.

Experiments:
BHET [1] = test: Proxy for plastic degradation [Released monomer concentration (HPLC/LC-MS) (BHET)]; conditions: pH 7
BHET [2] = conditions: 50 °C; part of the chain shown

B1: unnamed (protein)
chain: MSMTASAYALAQSSPYAKGPDPTTSSLEAATGSFSTRTTTVSRLSASGFGGGTIYYPTASGSYGAIAISPGFTAYQSSISWLGTRLASRGFVVITIDTITTSDQPDSRGRQLKAALDKVVSLSRTAGNVLYGKVDANRLAVAGHSMGGGGTLAAARDNPSLKAAVPLAPWHTTKFFSTIRVPTLIIGGESDTIAPVASHSIPFYTSSLSSIAKGYMELNNASHFFPQTSTYYPLVGKYMISWFKRFVDEDTRYSPFLCGAPHQSDVANFLRVSDYRENCPY
Q: Which “Proxy for plastic degradation” value (BHET [1]) does the source give for B1 here?
A: 1%

B2: unnamed (protein)
chain: MNFPRASRLMQAAVLGGLMAVSAAATAQTNPYARGPNPTAASLEASAGPFTVRSFTVSRPSGYGAGTVYYPTNAGGTVGAIAIVPGYTARQSSIKWWGPRLASHGFVVITIDTNSTLDQPSSRSSQQMAALRQVASLNGTSSSPIYGKVDTARMGVMGHSMGGGGSLISAANNPSLKAAAPQAPWDSSTNFSSVTVPTLIFACENDSIAPVNSSALPIYDSMSRNAKQFLEINGGSHFCANSGNSNQALIGKKGVAWMKRFMDNDTRYSTFACENPNSTRVSDFRTANCS
Q: For B2, which Km (BHET [2]) is on record?
A: 1610 µM

Q: And the kcat (BHET [2])?
A: 540 s⁻¹

Q: And the kcat/Km (BHET [2])?
A: 335000 M⁻¹ s⁻¹
